System: c-Myc, P01106-1
Assay: competition
Conditions: 2'-OMe; 50 uM pool vs myc PS site; FIG. 5 labels this pool SEQ ID NO:33

Chain of c-Myc, P01106-1 (P01106 16-454): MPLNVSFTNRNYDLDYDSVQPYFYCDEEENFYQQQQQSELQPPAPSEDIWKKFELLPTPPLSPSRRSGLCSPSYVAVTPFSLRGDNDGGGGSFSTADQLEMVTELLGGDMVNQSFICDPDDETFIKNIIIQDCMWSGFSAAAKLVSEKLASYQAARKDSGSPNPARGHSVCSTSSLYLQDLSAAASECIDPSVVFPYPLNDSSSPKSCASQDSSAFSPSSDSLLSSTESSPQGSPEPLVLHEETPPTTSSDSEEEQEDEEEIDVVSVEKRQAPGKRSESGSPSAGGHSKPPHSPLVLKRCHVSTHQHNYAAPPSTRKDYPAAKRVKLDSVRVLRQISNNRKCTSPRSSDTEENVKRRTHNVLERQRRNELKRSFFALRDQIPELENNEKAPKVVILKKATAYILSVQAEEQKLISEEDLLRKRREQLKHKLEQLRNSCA

GCGNNNCNNNNNNCGC [2'-OMe pool X=C]
binding signal: 50 % inhibition
